The source of these data is patent US20100081612A1 (GENERAL HOSPITAL, published 2010).

Read-outs that look alike come from different tables or passages of the source. Where no end group is shown, it is not given here. [ ]: non-standard residue; d: D form. Cha = N[C@@H](CC1CCCCC1)C(=O)O

For orientation: IC50 means the point on the concentration scale where inhibition reaches its midpoint. Higher therefore signals lower potency.

For assay [1], the target named is T1, rat PTHR endogenously expressed in ROS 17/2.8 cells (rat, UniProt P25961 27-591).
T1 sequence (looked up): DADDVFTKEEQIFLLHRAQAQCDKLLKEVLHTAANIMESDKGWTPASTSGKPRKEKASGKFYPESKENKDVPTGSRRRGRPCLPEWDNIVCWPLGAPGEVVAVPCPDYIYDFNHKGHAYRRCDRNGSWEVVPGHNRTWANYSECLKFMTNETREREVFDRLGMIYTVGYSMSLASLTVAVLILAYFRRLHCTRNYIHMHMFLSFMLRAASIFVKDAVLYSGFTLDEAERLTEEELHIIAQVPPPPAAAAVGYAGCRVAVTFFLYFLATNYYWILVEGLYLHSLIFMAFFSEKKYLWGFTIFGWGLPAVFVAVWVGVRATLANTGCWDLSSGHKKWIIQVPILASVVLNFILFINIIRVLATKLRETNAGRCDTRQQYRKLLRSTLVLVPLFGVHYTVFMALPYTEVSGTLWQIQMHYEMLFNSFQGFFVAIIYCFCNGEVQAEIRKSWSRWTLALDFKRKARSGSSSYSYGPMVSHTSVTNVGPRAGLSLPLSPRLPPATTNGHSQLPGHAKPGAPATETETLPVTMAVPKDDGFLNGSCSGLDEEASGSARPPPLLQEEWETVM
Put plainly: cell-based or functional assay.

Assay [2] has as its target T2, wild-type human PTHR (human, UniProt Q03431 27-593).
T2 construct: whole, on cells; also called PTHR-WT; intact PTHR
T2 sequence (looked up): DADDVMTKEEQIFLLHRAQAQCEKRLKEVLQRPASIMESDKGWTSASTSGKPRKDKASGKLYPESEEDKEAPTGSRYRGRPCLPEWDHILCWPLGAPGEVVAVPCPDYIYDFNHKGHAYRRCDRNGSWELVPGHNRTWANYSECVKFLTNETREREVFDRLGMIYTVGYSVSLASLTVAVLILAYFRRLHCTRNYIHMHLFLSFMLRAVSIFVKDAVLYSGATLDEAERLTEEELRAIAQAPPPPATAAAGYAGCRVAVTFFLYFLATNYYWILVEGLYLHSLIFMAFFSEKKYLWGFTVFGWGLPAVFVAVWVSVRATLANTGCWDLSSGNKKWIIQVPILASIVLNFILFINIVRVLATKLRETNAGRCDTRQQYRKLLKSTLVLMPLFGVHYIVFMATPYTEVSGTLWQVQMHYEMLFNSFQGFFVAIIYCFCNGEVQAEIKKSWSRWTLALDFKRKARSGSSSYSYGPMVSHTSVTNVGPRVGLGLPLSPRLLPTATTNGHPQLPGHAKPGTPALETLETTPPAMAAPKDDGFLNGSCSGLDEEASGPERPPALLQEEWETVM
Put plainly: competition binding, HKRK-B7 cells, 125I-PTH(1-34) tracer. An outline of the steps:
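Intact HKRK-B7 cells stably expressing hPTHR incubated 4 h at 15° C with ¹²⁵I-PTH(1-34) tracer and unlabeled peptide (3×10⁻⁹ to 1×10⁻⁵ M). Nonspecific binding defined with 1×10⁻⁶ M PTH(1-31)NH₂. Bound activity counted after lysis and expressed as % specific binding without competitor; values in nM, mean ± s.e.m.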

Assay [3] has as its target T1, rat PTHR endogenously expressed in ROS …. The assay can be described thus: competition binding, ROS 17/2.8 cells, 125I-PTH(1-34) tracer. How it is done:
(§1) Receptor binding—Binding to the wild-type human PTHR in intact HKRK-B7 cells and ROS 17/2.8 cells was assessed using ¹²⁵I-PTH(1-34) as a tracer radioligand, as described (Shimizu, M., (2001) Endocrinology 142:3068-3074). In brief, the cells in 24-well plates (about 500,000 cells per well) were incubated in binding buffer containing radioligand (about 100,000 cpm per well) with or without unlabeled peptide ligand (3×10⁻⁹ to 1×10⁻⁵ M) for four hours at 15° C. The binding mixture was then removed by aspiration, the cells were rinsed three times with binding buffer, lysed in 1 M NaOH, and the entire lysate was counted for gamma-irradiation in a gamma counter. Binding to PTHR-delNt in COS-7 cell membranes was assessed in 96-well, vacuum filtration plates (Multiscreen-Durapore HV, […], Millipore Corp., Millford, Mass.) using ¹²⁵I-[Aib^{1,3},M]PTH(1-15)NH₂ as a tracer radioligand, as described (Dean, T., (2006) Mol Endocrinol 20:931-942). In brief, cell membranes (20 μg/well) were incubated in membrane binding buffer containing radioligand (30,000 cpm/well) with or without unlabeled peptide ligand (3×10⁻⁹ to 1×10⁻⁵ M) for 90 minutes at 21° C. The plates were then subject to rapid vacuum filtration, the filters were washed once with buffer, detached from the plate and counted for gamma-irradiation in a gamma counter. Non-specific binding was defined as the binding observed in the presence of 1×10⁻⁶ M PTH(1-31)NH₂ for HKRK-B7 and ROS 17/2.8 cells, and 1×10⁻⁶ M [Aib^{1,3},M]PTH(1-15)NH₂ for PTHR-delNt. Specifically bound radioactivity was calculated as a percentage of the radioactivity specifically bound in the absence of competing ligand.
Effects on cAMP and IP signaling—Selected analogs of [Ala¹,Arg¹⁹]hPTH(1-31)NH₂ with substitutions that markedly impaired binding to HKRK-B7 cells were assessed for their capacity to bind to the PTHR in ROS 17/2.8 cells and to stimulate cAMP-signaling responses in these cells. These bone-derived cells endogenously express the rat PTHR at a more physiological level than is found in HKRK-B7 cells (approximately 80,000 PTHRs per cell vs. 950,000 PTHRs per cell) and, have generally been found (data not shown) to yield closer correlations between PTH analog binding affinity and cAMP-signaling potency than do HKRK-B7 cells, presumably due to their lower PTHR expression level.

For assay [4], the target named is PTHR-delNt (human) (UniProt Q03431). Put plainly: competition binding, COS-7 membranes, 125I-[Aib1,3,M]PTH(1-15) tracer.
The target of assay [5] is T2, wild-type human PTHR. Put plainly: competition binding, HKRK-B7 cells, 125I-PTH(1-34) tracer. The source holds these as a separate data set.
Assay [6] deals with T2, wild-type human PTHR. The description is as above. As for the experimental part: as §1
Alanine-Scan of the PTH(17-31) domain—Each residue in the (17-31) region of PTH(1-31)NH₂ was individually replaced with alanine and the effects of the substitutions on binding to the intact human PTHR stably expressed in HKRK-B7 cells was assessed. Competition binding studies were performed using whole cells and ¹²⁵I-PTH(1-34) (¹²⁵I-[Nle^{8,21},Tyr³⁴]ratPTH(1-34)NH₂) as a tracer radioligand.
The source holds these as a separate data set.

Assay [7] addresses T2, wild-type human PTHR. The assay can be described thus: cell-based or functional assay.

B1: [Ala^1,Arg^19]hPTH(1-31)NH2 (peptide)
peptide: AVSEIQLMHNLGKHLNSMRRVEWLRKKLQDV-NH2
notes: also called [Ala^1,Arg^19]PTH(1-31)NH2; [Ala^1,Arg^19]PTH(1-31)
On to B1, for which the “cAMP EC50, ROS 17/2.8 cells” value in assay [1] is 0.78 nM. Further, the IC50 in assay [2] was determined as 38 nM; in assay [3], 1.6 nM; in assay [4], 397 nM.

In the case of AVSEIQLMHNLGKHLNSMRRVEELRKKLQDV-NH2 [[Ala^1,Arg^19]hPTH(1-31)NH2 Trp^23→Glu], the “cAMP EC50, ROS 17/2.8 cells” value in assay [1] is 4 nM. In addition, the values for the IC50 in assay [2], in assay [3] and in assay [4] were 6040 nM, 220 nM and 434 nM, respectively. Also, the fold reduction in binding affinity vs [Ala^1,Arg^19]PTH(1-31)NH2 in assay [4] was less than 3 fold.

As for AVSEIQLMHNLGKHLNSMRRVEWLRKKEQDV-NH2 [[Ala^1,Arg^19]hPTH(1-31)NH2 Leu^28→Glu], the “cAMP EC50, ROS 17/2.8 cells” value in assay [1] worked out at 11 nM. The IC50 in assay [2] was determined as 10400 nM; in assay [3], 3100 nM; in assay [4], 974 nM. Moreover, in assay [4], the fold reduction in binding affinity vs [Ala^1,Arg^19]PTH(1-31)NH2 is less than 3 fold.

Regarding SVSEIQLMHNLGKHLNSAERVEWLRKKLQDV-NH2 [PTH(1-31)NH2 Met^18→Ala], the “fold change in binding affinity vs PTH(1-31)NH2” value in assay [5] was no more than 2 fold. Also, the values for the IC50 in assay [6] and in assay [4] were 92 nM and 8800 nM, respectively. Moreover, the “inositol phosphate (IP) production, peptide at 1×10^-6 M” value (shortened to “inositol phosphate (IP) production”) in assay [7] stood at 4 fold.

Turning to SVSEIQLMHNLGKHLNSMERVEALRKKLQDV-NH2 [PTH(1-31)NH2 Trp^23→Ala], the “fold reduction in binding affinity vs PTH(1-31)NH2” value was determined as 19 fold in assay [5] and 2 fold in assay [4]. For the same molecule, the half-inhibitory concentration (IC50) in assay [6] was 1310 nM; in assay [4], 7360 nM. In assay [7], the “inositol phosphate (IP) production” value came to 4 fold.

With AVSEIQLMHNLGKHLNSMRRVEWERKKLQDV-NH2 [[Ala^1,Arg^19]hPTH(1-31)NH2 Leu^24→Glu], the “fold reduction in binding affinity vs [Ala^1,Arg^19]PTH(1-31)NH2” value (shortened to “fold reduction … [Ala^1,Arg^19]PTH(1-31)NH2”) in assay [5] is no less than 150 fold; in assay [4], less than 3 fold. The “cAMP EC50, ROS 17/2.8 cells” value in assay [1] came out at 250 nM. The IC50 is greater than 10000 nM in assay [2], 29000 nM in assay [3] and 1040 nM in assay [4].

As to AVSEIQLMHNLGKHLNSMREVEWLRKKLQDV-NH2 [[Ala^1,Arg^19]hPTH(1-31)NH2 Arg^20→Glu], the “fold reduction … [Ala^1,Arg^19]PTH(1-31)NH2” value is no less than 150 fold in assay [5] and less than 3 fold in assay [4]. Moreover, the “cAMP EC50, ROS 17/2.8 cells” value in assay [1] came out at 59 nM. In addition, the figures for the IC50 in assay [2], in assay [3] and in assay [4] were greater than 10000 nM, 5800 nM and 776 nM, respectively.

For the molecule SVSEIQLMHNLGKHLNAMERVEWLRKKLQDV-NH2 [PTH(1-31)NH2 Ser^17→Ala], the “fold change in binding affinity vs PTH(1-31)NH2” value in assay [5] is no more than 2 fold. The results for the 50% inhibitory concentration (IC50) in assay [6] and in assay [4] were 57 nM and 4580 nM, respectively. Further, in assay [7], the “inositol phosphate (IP) production” value came to 4 fold.

B2: [Ala^1,Arg^19]hPTH(1-31)NH2 Arg^20→Cha (peptide)
peptide: AVSEIQLMHNLGKHLNSMR[Cha]VEWLRKKLQDV-NH2
modifications: N-terminus assumed
SMILES: CC[C@H](C)[C@H](NC(=O)[C@H](CCC(=O)O)NC(=O)[C@H](CO)NC(=O)[C@@H](NC(=O)[C@H](C)N)C(C)C)C(=O)N[C@@H](CCC(N)=O)C(=O)N[C@@H](CC(C)C)C(=O)N[C@@H](CCSC)C(=O)N[C@@H](Cc1c[nH]cn1)C(=O)N[C@@H](CC(N)=O)C(=O)N[C@@H](CC(C)C)C(=O)NCC(=O)N[C@@H](CCCCN)C(=O)N[C@@H](Cc1c[nH]cn1)C(=O)N[C@@H](CC(C)C)C(=O)N[C@@H](CC(N)=O)C(=O)N[C@@H](CO)C(=O)N[C@@H](CCSC)C(=O)N[C@@H](CCCNC(=N)N)C(=O)N[C@@H](CC1CCCCC1)C(=O)N[C@H](C(=O)N[C@@H](CCC(=O)O)C(=O)N[C@@H](Cc1c[nH]c2ccccc12)C(=O)N[C@@H](CC(C)C)C(=O)N[C@@H](CCCNC(=N)N)C(=O)N[C@@H](CCCCN)C(=O)N[C@@H](CCCCN)C(=O)N[C@@H](CC(C)C)C(=O)N[C@@H](CCC(N)=O)C(=O)N[C@@H](CC(=O)O)C(=O)N[C@H](C(N)=O)C(C)C)C(C)C
notes: also called Cha^20 analog
Regarding B2, in assay [5], the “fold reduction … [Ala^1,Arg^19]PTH(1-31)NH2” value turned out to be 120 fold. Moreover, in assay [1], the “cAMP EC50, ROS 17/2.8 cells” value was determined as 7.5 nM. The concentration for half-maximal inhibition (IC50) in assay [2] was determined as 4740 nM; in assay [3] it was 290 nM; in assay [4] it was 632 nM. Further, the fold change in binding affinity vs [Ala^1,Arg^19]PTH(1-31)NH2 in assay [4] is less than 3 fold.
